According to publication PMC2174220:

Legend:
[1] = molecular target: dynamitin (p50) subunit of dynactin, endogenous bovine (bovine) (UniProt Q3ZCF0); test: co-sedimentation
[2] = molecular target: p62 subunit of dynactin (bovine); test: ion exchange chromatography
[3] = molecular target: p150^Glued subunit of dynactin (bovine); test: co-sedimentation

Sequence of p62 subunit of dynactin (bovine) (Q9QUR2 whole entry): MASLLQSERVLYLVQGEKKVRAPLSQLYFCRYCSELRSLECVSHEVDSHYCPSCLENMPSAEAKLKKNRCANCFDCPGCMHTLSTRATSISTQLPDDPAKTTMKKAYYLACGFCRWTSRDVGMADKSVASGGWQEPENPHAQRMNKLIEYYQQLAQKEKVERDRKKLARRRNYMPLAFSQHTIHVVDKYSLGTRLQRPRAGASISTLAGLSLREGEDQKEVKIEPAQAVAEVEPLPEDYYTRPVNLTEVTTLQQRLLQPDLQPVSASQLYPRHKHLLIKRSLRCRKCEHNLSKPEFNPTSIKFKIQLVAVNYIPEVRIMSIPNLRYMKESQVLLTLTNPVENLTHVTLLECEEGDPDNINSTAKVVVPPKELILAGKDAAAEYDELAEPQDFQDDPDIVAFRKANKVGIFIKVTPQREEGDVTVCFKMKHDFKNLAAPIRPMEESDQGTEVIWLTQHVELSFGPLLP

Arp1, actin-related protein of the dynactin minifilament (natural protein)
stoichiometry N (Arp1 per dynamitin) [1]: 1.97

Arp11, novel actin-related protein of the dynactin pointed-end complex (from UniProt Q3ZBD2 1-417) (natural protein)
stoichiometry N ([2]; scale: Arp11 per 1 p62): 1

dynamitin (p50) subunit of dynactin, endogenous bovine (from UniProt Q3ZCF0 1-403) (natural protein)
stoichiometry N ([3]; scale: dynamitin per 2 p150): 2

p24 subunit of dynactin (from UniProt Q0P5A1 1-186) (natural protein)
stoichiometry N (p24 per 2 p150^Glued) [3]: 2 | stoichiometry N ([3]; scale: p24 per 2 p150): 1

p25 subunit of dynactin (from UniProt Q9QZB9 1-182) (natural protein)
stoichiometry N ([2]; scale: p25 per 1 p62): 1

p27 subunit of dynactin (from UniProt Q148G7 1-190) (natural protein)
stoichiometry N ([2]; scale: p27 per 1 p62): 1
